The text below walks through data of the DeepSol protein solubility set.

The series is described as follows: soluble on expression in E. coli; label from the status in PepcDB or PDB records.
Regarding “MGSDKIHHHHHHSEENESSGTIEMNQLPGTAQSFLSNYFPGQTPEKIERTNTDQENARLLYRVVFPNEVKVEFSENGGWKRLMIPDQKLPGSLDSLWGKIIEYVQQLFPDDPFIGIENACYGDCVLLSSGKKIAFYYDGTCIGYEMDIKDESGVPQPVRDFVATYFPDGVFQAVVEHIPNENVTAGYSFWLENGFKCVLNDRGQWTEVNGGTELLPVSILETLPAKVTEQLYRDYPAAQVTYIRLEGTCYTIQVSKTVYVTIDPESKPIVVPVMQAQALAEEYFGKLRSISISHPLHTDVLNFKVCLPNGFNMLVNEDASEWLNIDGNGFAFPEKLVASLPEKITEYISAHSNSEITRVDRSVAASFLVELTNGDGLMFDSQGGFLGKEKIELSISEKTYRYMRHQFPDDLNMYFSSYSIEGWIYKLGDGSQVRFDRDGNFVEMIAAAK”, the “soluble on expression in E. coli” value is on record as “not soluble”.
The same measure for “MGSDKIHHHHHHMVAITSCSDDSDGIPGWPWNDNSTEGPENPDVTEIKPRYVWIDAAANFPDYANNKENISTDMVKVKNAGFTDIIVDVRPTTGDVLFNTTAVDQVKRMDVWGSSGYVYYERTETWDYLQAFIDAARSQGLKVHASVNTFVGGYLCPYNLGSDGILFRDDSKKEWASVANLADGLTNTMDLLNDETDYGAKFLNPANDDVQNFVLQLLGDLAKYDLDGIILDRCRYDDYGLESDFSAVSKQKFEEYIGETVAHFPEDIMAPGTDEIPSDQPAYFKKWLEFRVKVIHDFIVKAREKVKSVNSEINFGVYVGAWYSSYYTSGVNWASPKYDTSAYYPKWATADYKNYGYADHLDYIFLGAYASVDKIYGSGEWTMEGFCKNGRELLKGDVPFSGGPDIGNGTGWTNGGQAAKIPDAIDACINNSDGFFAFDLCHIKMYDYWNAFKTGFDNYLESVQK”: “not soluble”; for “MADMKNKYDVKRIIPDELSESLDIFLKNYSETGLSDYNTYLFYGFILKSYKLPRENRYSIKLLVKELQNRGLKVTLIINIYYHALNCLALNDGLKIYGEDFLI”: “not soluble”; for “SLEEPPKAVELEGLAACEGEYSQKYSTMSPLGSGAFGFVWTAVDKEKNKEVVVKFIKKEKVLEDCWIEDPKLGKVTLEIAILSRVEHANIIKVLDIFENQGFFQLVMEKHGSGLDLFAFIDRHPRLDEPLASYIFRQLVSAVGYLRLKDIIHRDIKDENIVIAEDFTIKLIDFGSAAYLERGKLFYTFCGTIEYCAPEVLMGNPYRGPELEMWSLGVTLYTLVFEENPFCELEETVEAAIHPPYLVSKELMSLVSGLLQPVPERRTTLEKLVTDPWVTQPVNLADYTWEEVCRVNKPESGVLSAASLEMGNRSLSDVAQAQELCGG”: “not soluble”.
To “MAKGSSDKDNGYGNIRTSTSLSICCQDSHLTTPIAPIAPELYSLKVPKDYTPETTSTMRRSLESRLAWLGRQSYVFRSLKQLETVTHNATIRTFFWKDGSVSSSTGGNDGFWIKDELHAGA” belongs “not soluble”.
The same measure for “QAMLIGEIMDLNLKNFLEDREEIIRDAKRKDEKSFKDFKKIVEEIKERENKDKIVCDFTEYNPLHKGHKYALEKGKEHGIFISVLPGPLERSGRGIPYFLNRYIRAEMAIRAGADIVVEGPPMGIMGSGQYMRCLIKMFYSLGAEIIPRGYIPEKTMEKVIDCINKGYHIQVKPYKIICIETGEILGEKLNIDNYVIASMSQMIYKLNREGLKFNPKFVFVKRLEGISGTKIREAIFSGKFEDIKNMLPKTTLSILKELYDNGKLNELILKRFEDRILETANEYDLYEYLPSNVAEILEKKRPFNNIEEIKNSLPYGFSRHFRERILSKLEARIPNETLSKYINNYPAKIKILAVKL”: “soluble”.
As for “MGHHHHHHSHMEQTEVLKPRTLADLIRILHQLFAGDEVNVEEVQAIMEAYESDPIEWAMYAKFDQYRYTRNLVDQGNGKFNLMILCWGEGHGSSIHDHTNSHCFLKMLQGNLKETLFAWPDKKSNEMVKKSERVLRENQCAYINDSIGLHRVENISHTEPAVSLHLYSPPFDTCHAFDQRTGHKNKVTMTFHSKFGIRTPNATSGSLENN”, the “soluble on expression in E. coli” value was “not soluble”.
The same measure for “GSHMNPLASLTTDKNDLYINWLKSLSFFQTNSSCAEALVKVIPHYHNKLIDFSQVLQLVFSASEKFPIQENQPLPEQLMFLSNLEKQTPFAKAVGSSIYKLVTGKNLSLDFASQILKEASILEH”: “soluble”.
The same measure for “MTMRTYKNPYPDSEDAVEIRFDHCREDIAKAAQEYWREMTEAELDDLQEEIMRALAVSEWQNIWLTSAAFITVLAYHFHD”: “not soluble”; for “MSLKIRSITATPINLRLEAPYGWVFGELDGFSQTIVEVETEDGLIGLGEAPTPAAAAIINDVLAERLVGRDAFDIAGAEHVCLPYWTGVQSINDRTRIMAFGAIEMALWDLRGKAWNQPLYQLLGGAVRKDIPFTDYFSLRGDGPKVKGETTPEEVADYCVELHETHGTTFFEGKFSTEDPKVSLRMVELIRAKLGDEAMIRIDSNQAYSLATARRLARPLEELGVRNWEDPVATIEEMRQLRQHCSIPFSTHNIDIARAMDLKVPDAFVGNPTAHGGIGRLLRFVGACEHAGVDFWCYSGDSGIGSAAYLHLCAALGWIREPNQSLFRMQPMDITEEGPFSPRNNVVRVPEGPGLGVTLSRKNLAACHRDFAENGPCNKYHDPAKPGTYRRLPLNEGHHHHHH”: “soluble”; for “MDVPADSHIKYEDAIDYWTDVDATVDGVLGGYGEGTVVPTMDVLGSNNFLRKLKSRMLPQENNVKYAVDIGAGIGRVSKTMLHKHAAKIDLVEPVKPFIEQMHVELAELKDKGQIGQIYEVGMQDWTPDAGKYWLIWCQWCVGHLPDAELVAFLKRCIVGLQPNGTIVVKENNTPTDTDDFDETDSSVTRSDAKFRQIFEEAGLKLIASERQRGLPRELYPVRMYALKPMPN”: “soluble”.
The same measure for “MSLSARSSASSWSEEPVQSNMDISTGHMILSYMEDHLKNKNRLEKEWEALCAYQAEPNSSFVAQREENVPKNRSLAVLTYDHSRVLLKAENSHSHSDYINASPIMDHDPRNPAYIATQGPLPATVADFWQMVWESGCVVIVMLTPLAENGVRQCYHYWPDEGSNLYHIYEVNLVSEHIWCEDFLVRSFYLKNLQTNETRTVTQFHFLSWYDRGVPSSSRSLLDFRRKVNKCYRGRSCPIIVHCSDGAGRSGTYVLIDMVLNKMAKGAKEIDIAATLEHLRDQRPGMVQTKEQFEFALTAVAEEVNAILKALPQEGHHHHHH”: “soluble”.
On to “MAETVESSLAKSHIEGSFTNVWKDDKTLDWYANYEGILWKATGVVVITGDETQVYAIWVPVGLAIPENEGGGSEGGGSEGGGSEGGGTKPPEYGDTPIPGYIYINPLDGTYPPGTEQNPANPNPSLEESHPLNTFMFQGNRFRNRQGALTVYTGTVTQGTDPVKTYYQYTPVSSKAMYDAYWNGKFRDVAFHSGFNEDPLVAEYQGQLSYLPQPPVNAPSGHHHHHH”, for which the “soluble on expression in E. coli” value is “soluble”.
With “SASMDVEEFIGQNRQLADRVEAFRGFSESDKHWKGRREFIFRNMADFPEPQVDHLLALSMVWQNHVFMGCRYSSELLQRVMEMAEGIEVEDAPVFKTRDEIIRQQKQR”, the “soluble on expression in E. coli” value was “soluble”.
With “MDKQVRNTTEIVRLAKQKSKKTREKVDKAISKFSIEGKVINFNSIAKEANVSKSWLYKEHDIRQRIESLRERQITANVVSKPKKSSRSEEILIKTLKRRVMELEKENKKLQNQIQKLYGDLYNKELEHHHHHH”, the “soluble on expression in E. coli” value was “soluble”.
For “MGSDKIHHHHHHMDDTDWIGETFTSTVGWDHLETLVDIGNRMAGSGGERAAAEATRDALAEYTRDARLSEFGIQGWERGDSAVHAGGSPVATQAHECIALPRSPAGEVTGELVDVGHGLPEDFEDADCEGQIVLARSDVPDWYDRYIHRREKYYHAVEAGAAGFIYRNHVDGVLPPTGSVGTADAPIGEIPAIGVASETGARLARRYAGENVTLSVDCETPKATSQNVHAELGPDTDERLLVTSHADAHDIAEGAMDNGAGTAMVVEVARALAGREDELATRVEFVAFGAEEVGLVGSNRLAGETTLDDVTAVLNFDGVVQGRTLKCYTHGFDALTAAAEDVADRLDHPISLTPEQGPHSDHWPFVQRGVPGYHVTSETGGEGRGWGHTHADTLDKLEPRTFREQAVLLTELAVALADDSARPAHKDPAEIANALEAQNLAEGMRITGDWPFGD”, the “soluble on expression in E. coli” value was “not soluble”.
To “MAHHHHHHMVDDILKCIHNEFKYVLISCDINNEIKELTFKGSEEKFQNTLGSYFRRIIFDEKGKDELKESIKEKLKTNDKNDEDKEKVNTISPDIINNAIESSQTYQIIPLTIPNEKNDFLGINCYIDDIGRIKKLPYNSRASRICSTEIYGDAFLSKTYDNEDFKRCDFTISEYDEFLKNPPKSENRWDQAQAMQNLLKQMKGQNDAGVNDEAPTEKVNACEHCYKEQNLKRCGRCKKVYYCSVECQKSDYVFHKRICS” belongs “soluble”.
To “MSLVTIVAPMDEILERAHVVALPMRVKFRGIMVREAVLFDGPKGWGEFSPFVEYGVQEAAQWLRCGLEMAFQGPPPMIRDAVEVNATIPAVSPDQVPEILARYPGCTTVKVKVAEGDDAARVAMVREVLPDARIRVDANRGWTVDQAVAASKHLGELEYMEQPCASVAELAELRRRISVPIAADESIRRVSDPYEVARLHAADVAVVKAAPLGGPRNIVDIAKFYQQRGLSLTVASALDTGVGMNAGIAVAAAIDSNPAGLATQRLFVEDVTEPRTIVDGKMSVEMLAPDPARLAEFEVTGPRRDWWLDRVRGALECLHDFIPEGHHHHHH” belongs “not soluble”.
To “EQQADGTWLMDGWISIRKASNLLEHDLVDEAERYSTLGGYLLWQFGYIPAAGEQITVDGLIFEIVSVNKHNIGKVRVHRTQPENE” belongs “not soluble”; to “NHINPVNPAEPALYLPTQYDVREFAEKTKNETVYVFTSVGEYWPLAWYLRDHRAYFITTGVEGRSFISGNYIVVNATNDMRLDKTNLEFVETMVVRCWTFWTTPELQRIPAFLAFREPLTDVSCMNFSVYRAI”, “not soluble”.
As to “AMDIRQVTETIAMIEEQNFDIRTITMGISLLDCIDPDINRAAEKIYQKITTKAANLVAVGDEIAAELGIPIVNKRVSVTPISLIGAATDATDYVVLAKALDKAAKEIGVDFIGGFSALVQKGYQKGDEILINSIPRALAETDKVCSSVNIGSTKSGINMTAVADMGRIIKETANLSDMGVAKLVVFANAVEDNPFMAGAFHGVGEADVIINVGVSGPGVVKRALEKVRGQSFDVVAETVKKTAFKITRIGQLVGQMASERLGVEFGIVDLSLAPTPAVGDSVARVLEEMGLETVGTHGTTAALALLNDQVKKGGVMACNQVGGLSGAFIPVSEDEGMIAAVQNGSLNLEKLEAMTAICSVGLDMIAIPEDTPAETIAAMIADEAAIGVINMKTTAVRIIPKGKEGDMIEFGGLLGTAPVMKVNGASSVDFISRGGQIPAPIHSFKN”, the “soluble on expression in E. coli” value is reported as “soluble”.
The same measure for “MGSDKIHHHHHHMKMEELFKKHKIVAVLRANSVEEAKEKALAVFEGGVHLIEITFTVPDADTVIKELSFLKEKGAIIGAGTVTSVEQCRKAVESGAEFIVSPHLDEEISQFCKEKGVFYMPGVMTPTELVKAMKLGHTILKLFPGEVVGPQFVKAMKGPFPNVKFVPTGGVNLDNVCEWFKAGVLAVGVGSALVKGTPDEVREKAKAFVEKIRGCTE”: “soluble”; for “MGSDKIHHHHHHMEKQYEYVHEKFRHLVIASNQERIEFLDEPRWVGYAVANKIIDNLVSLMNKPKRPRMFNLLVVGDSNNGKTTLIRHFYDLYGIPFVDSQSDGIRPIILAEAPPSANEKELYISLLERFYVPYRPTDSVAKLRYQTIHLFREYKVKMLIIDEFHSLLVGTPRLQRQVMNAIKMLCNELQIPIVGVGTKDAIRVLHTDPQHASRFDVAELPTWKLDKDFQKLLFQFQGILPLKKCSNLQSPELATKIHTISGGNLGNVHRLLTACAIEAITTGTEQITLDIIEHNSWVQPTQGLRKIIG”: “not soluble”.
